Data taken from paper PMC10696123 (iScience, 2023).

Key:
[1] = molecular target: FleR 1-473 (UniProt Q9I4N3); experiment: dynamic light scattering; details: reference: wild type FleRFL, acetyl phosphate treated; sites D53
[2] = molecular target: FleR 1-473 (UniProt Q9I4N3); experiment: small-angle X-ray scattering; details: reference: non-phosphorylated FleR D53A; sites D53
[3] = molecular target: the molecule itself; experiment: SAXS
[4] = molecular target: the molecule itself; experiment: cross-linking

FleR 1-473 (from UniProt Q9I4N3) FleR D53A, acetyl phosphate treated
other: hydrodynamic diameter [1]: weaker; reference 23.17 ± 0.58

FleR 1-473 (from UniProt Q9I4N3) acetyl phosphate-phosphorylated FleR S150F
other: SAXS molecular mass (Bayesian inference) [2]: stronger; reference 113650

B1: FleR D53A, non-phosphorylated, full length (natural protein, Pseudomonas aeruginosa (PAO1 strain), UniProt Q9I4N3 1-473, looked up)
chain: MAAKVLLVEDDRALREALSDTLLLGGHEFVAVDSAEAALPVLAREAFSLVISAVNMPGMDGHQLLGLIRTRYPHLPVLLMTAYGAVDRAVEAMRQGAADYLVKPFEARALLDLVARHALGQLPGSEEDGPVALEPASRQLLELAARVARSDSTVLISGESGTGKEVLANYIHQQSPRAGKPFIAINCAAIPDNMLEATLFGHEKGSFTGAIAAQPGKFELADGGTILLDEISEMPLGLQAKLLRVLQEREVERVGARKPINLDIRVLATTNRDLAAEVAAGRFREDLYYRLSVFPLAWRPLRERPADILPLAERLLRKHSRKMNLGAVALGPEAAQCLVRHAWPGNVRELDNAIQRALILQQGGLIQPADLCLTAPIGMPLAAPVPVPMPAMPPATPPSVEIPSPAAGQDASGALGDDLRRREFQVIIDTLRTERGRRKEAAERLGISPRTLRYKLAQMRDAGMDVEAYLYAI
stoichiometry N [3]: 2

B2: FleR S150F, full length, phosphorylated with acetyl phosphate (natural protein, Pseudomonas aeruginosa (PAO1 strain), UniProt Q9I4N3 1-473, looked up)
chain: MAAKVLLVEDDRALREALSDTLLLGGHEFVAVDSAEAALPVLAREAFSLVISDVNMPGMDGHQLLGLIRTRYPHLPVLLMTAYGAVDRAVEAMRQGAADYLVKPFEARALLDLVARHALGQLPGSEEDGPVALEPASRQLLELAARVARFDSTVLISGESGTGKEVLANYIHQQSPRAGKPFIAINCAAIPDNMLEATLFGHEKGSFTGAIAAQPGKFELADGGTILLDEISEMPLGLQAKLLRVLQEREVERVGARKPINLDIRVLATTNRDLAAEVAAGRFREDLYYRLSVFPLAWRPLRERPADILPLAERLLRKHSRKMNLGAVALGPEAAQCLVRHAWPGNVRELDNAIQRALILQQGGLIQPADLCLTAPIGMPLAAPVPVPMPAMPPATPPSVEIPSPAAGQDASGALGDDLRRREFQVIIDTLRTERGRRKEAAERLGISPRTLRYKLAQMRDAGMDVEAYLYAI
modifications: phosphorylated by acetyl phosphate (site D53)
stoichiometry N [3]: 7

B3: DNA-binding domain of FleR (FleRDBD, residues 412-473) (domain or fragment, Pseudomonas aeruginosa (PAO1 strain), UniProt Q9I4N3 412-473, looked up)
chain: SGALGDDLRRREFQVIIDTLRTERGRRKEAAERLGISPRTLRYKLAQMRDAGMDVEAYLYAI
stoichiometry N [4]: 2
